Measurements from PMC2425489.

Key:
[1] = target: Hoxa2(QN-AA) (Hoxa2*);Pbx1a (mouse?;, UniProt P31245;P41778 1-372;1-430, Q188A;N189A|); assay: EMSA
Hoxa1 = Hoxa1 (UniProt P09022 1-331); assay: EMSA
Hoxa1(WM-AA);Pbx1a = Hoxa1(WM-AA);Pbx1a (mouse?;, UniProt P09022;P41778 1-331;1-430, W203A;M204A|); assay: EMSA
Hoxa1(WM-AA) = Hoxa1(WM-AA) (UniProt P09022 1-331, W203A;M204A); assay: EMSA
Hoxa2(QN-AA) (Hoxa2*) = Hoxa2(QN-AA) (Hoxa2*) (UniProt P31245 1-372, Q188A;N189A); assay: EMSA
Hoxa2 = Hoxa2 (UniProt P31245 1-372); assay: EMSA
Hoxa2, sequence (P31245 whole entry): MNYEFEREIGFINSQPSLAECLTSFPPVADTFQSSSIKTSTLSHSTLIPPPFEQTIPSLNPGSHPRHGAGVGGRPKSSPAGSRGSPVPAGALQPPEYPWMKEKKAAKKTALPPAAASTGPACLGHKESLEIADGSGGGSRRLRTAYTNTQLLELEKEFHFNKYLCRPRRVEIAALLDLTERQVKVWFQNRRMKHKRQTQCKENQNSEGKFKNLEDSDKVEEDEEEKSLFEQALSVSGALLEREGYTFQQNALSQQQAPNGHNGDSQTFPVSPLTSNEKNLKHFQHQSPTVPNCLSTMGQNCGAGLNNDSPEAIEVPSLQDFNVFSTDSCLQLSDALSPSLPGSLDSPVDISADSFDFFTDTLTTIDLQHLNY

Hoxa2;Pbx1a [2] = target: T1, Hoxa2;Pbx1a (mouse?;, UniProt P31245;P41778 1-372;1-430, |); assay: EMSA
T1 sequence (P31245 whole entry, one chain of several): as the sequence (P31245 whole entry) above

Pbx1a;Prep1 [3] = target: T2, Pbx1a;Prep1 (;, UniProt P41778;P55347 1-430;1-436, |); assay: EMSA
T2 sequence 1: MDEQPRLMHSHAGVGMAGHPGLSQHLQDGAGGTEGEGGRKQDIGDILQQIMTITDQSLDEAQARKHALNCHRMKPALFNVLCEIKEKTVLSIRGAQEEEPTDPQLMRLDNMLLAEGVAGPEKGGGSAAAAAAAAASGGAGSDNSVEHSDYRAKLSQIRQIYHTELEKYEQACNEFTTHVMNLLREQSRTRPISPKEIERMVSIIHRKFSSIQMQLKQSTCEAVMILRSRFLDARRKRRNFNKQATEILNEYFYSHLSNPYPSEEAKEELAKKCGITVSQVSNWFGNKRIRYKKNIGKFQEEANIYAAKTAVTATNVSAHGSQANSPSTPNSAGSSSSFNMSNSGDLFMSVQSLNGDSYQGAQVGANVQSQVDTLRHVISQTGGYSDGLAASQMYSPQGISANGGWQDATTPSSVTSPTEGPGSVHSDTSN
T2 sequence 2: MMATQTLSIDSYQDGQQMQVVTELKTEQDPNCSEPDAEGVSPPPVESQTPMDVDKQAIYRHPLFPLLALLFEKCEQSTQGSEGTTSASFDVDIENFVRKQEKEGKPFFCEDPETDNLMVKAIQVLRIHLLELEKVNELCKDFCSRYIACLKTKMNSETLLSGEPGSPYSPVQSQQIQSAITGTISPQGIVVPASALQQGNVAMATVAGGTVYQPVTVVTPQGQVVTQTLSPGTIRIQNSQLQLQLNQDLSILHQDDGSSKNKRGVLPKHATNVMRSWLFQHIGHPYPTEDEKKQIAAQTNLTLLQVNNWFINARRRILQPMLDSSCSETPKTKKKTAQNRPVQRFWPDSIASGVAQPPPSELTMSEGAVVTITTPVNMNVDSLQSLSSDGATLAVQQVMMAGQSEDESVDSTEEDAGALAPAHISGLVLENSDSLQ

Hoxa2;Pbx1a [4] = target: T1, Hoxa2;Pbx1a; assay: competition
Pbx1a;Prep1 [5] = target: T2, Pbx1a;Prep1; assay: competition

Measured: binding result

Hoxa1(WM-AA);Pbx1a, sequence (P09022 whole entry W203A/M204A, one chain of several): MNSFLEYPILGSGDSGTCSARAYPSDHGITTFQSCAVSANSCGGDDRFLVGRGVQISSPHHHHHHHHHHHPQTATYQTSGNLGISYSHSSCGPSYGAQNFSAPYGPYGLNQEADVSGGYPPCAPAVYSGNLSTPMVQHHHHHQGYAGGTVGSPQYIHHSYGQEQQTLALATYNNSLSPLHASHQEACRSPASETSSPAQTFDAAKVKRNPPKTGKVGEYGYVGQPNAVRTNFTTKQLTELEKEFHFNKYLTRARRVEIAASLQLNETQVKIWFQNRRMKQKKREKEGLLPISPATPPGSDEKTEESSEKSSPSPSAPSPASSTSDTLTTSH
Hoxa1(WM-AA), sequence (P09022 whole entry W203A/M204A): as the sequence (P09022 whole entry W203A/M204A, one chain of several) above
Hoxa1, sequence (P09022 whole entry): as the sequence (P09022 whole entry W203A/M204A, one chain of several) above, with A203W, A204M counted along it
Hoxa2(QN-AA) (Hoxa2*);Pbx1a, sequence (P31245 whole entry Q188A/N189A, one chain of several): as the sequence (P31245 whole entry) above, with Q188A, N189A counted along it
Hoxa2(QN-AA) (Hoxa2*), sequence (P31245 whole entry Q188A/N189A): as the sequence (P31245 whole entry) above, with Q188A, N189A counted along it

B1: HRE (dsDNA)
DNA 1: TTTCAAAGTTCATCAATCAAGACCTCG
DNA 2: CGAGGTCTTGATTGATGAACTTTGAAA
no binding: [1] | Hoxa1 | Hoxa1(WM-AA);Pbx1a | Hoxa1(WM-AA) | Hoxa2(QN-AA) (Hoxa2*)

B2: HRE* (mutated HRE) (dsDNA)
DNA 1: TTTCAAAGTTGGTGGGGGAAGACCTCG
DNA 2: CGAGGTCTTCCCCCACCAACTTTGAAA
no binding: Hoxa2 | Hoxa2;Pbx1a [2] | Pbx1a;Prep1 [3]

B3: comp* (unlabelled mutated HRE) (dsDNA)
DNA 1: TTTCAAAGTTGGTGGGGGAAGACCTCG
DNA 2: CGAGGTCTTCCCCCACCAACTTTGAAA
no binding: Hoxa2;Pbx1a [4] | Pbx1a;Prep1 [5]
